tested on: Escherichia coli TOP10; test: shrunken log2 fold change of peptide-encoding DNA abundance (4.5 h post-induction vs induction); higher = less antimicrobial activity (less host growth inhibition); details: time post-induction: 4.5 h; library: site-saturation at positions 5, 18, 19, 20
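Further: peptides expressed intracellularly from a pBAD plasmid library in pooled LB shake-flask culture, induced with 0.3% L-arabinose, DNA abundance read by NGS, three biological replicates, DESeq2 with apeglm shrinkage.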

Row | Sequence | shrunken log2 fold change
1 | RRIRDRPPRLPRPRPRPDWPPRP | -0.0123
2 | RRIRARPPRLPRPRPRPMQDPRP | 0.188
3 | RRIRSRPPRLPRPRPRPDWNPRP | -0.298
4 | RRIRARPPRLPRPRPRPKWEPRP | 0.0262
5 | RRIRKRPPRLPRPRPRPSYAPRP | 0.0314
6 | RRIRERPPRLPRPRPRPFFPPRP | -0.241
7 | RRIRARPPRLPRPRPRPEGKPRP | 0.702
8 | RRIRVRPPRLPRPRPRPNVHPRP | -0.546
9 | RRIRLRPPRLPRPRPRPRICPRP | -0.237
10 | RRIRSRPPRLPRPRPRPVIGPRP | 0.0912
11 | RRIRPRPPRLPRPRPRPSCNPRP | -0.314
12 | RRIRQRPPRLPRPRPRPCTEPRP | 0.0363
13 | RRIRERPPRLPRPRPRPYRGPRP | -0.00417
14 | RRIRDRPPRLPRPRPRPIDPPRP | -0.107
15 | RRIRNRPPRLPRPRPRPVRTPRP | 0.296
16 | RRIRDRPPRLPRPRPRPSFYPRP | -0.128
17 | RRIRHRPPRLPRPRPRPLRDPRP | 0.271
18 | RRIRNRPPRLPRPRPRPIITPRP | -0.14
19 | RRIRKRPPRLPRPRPRPAPNPRP | 0.631
20 | RRIRYRPPRLPRPRPRPLWQPRP | -0.499
21 | RRIRRRPPRLPRPRPRPMSWPRP | 0.0104
22 | RRIRTRPPRLPRPRPRPGMNPRP | -0.15

Row | Sequence | shrunken log2 fold change
23 | RRIRPRPPRLPRPRPRPGVLPRP | 0.219
24 | RRIRVRPPRLPRPRPRPMVWPRP | 0.117
25 | RRIRARPPRLPRPRPRPDLCPRP | 0.393
26 | RRIRSRPPRLPRPRPRPVKMPRP | 0.0674
27 | RRIRARPPRLPRPRPRPRRYPRP | 0.255
28 | RRIRLRPPRLPRPRPRPTQNPRP | 0.404
29 | RRIRHRPPRLPRPRPRPHMVPRP | -1.01
30 | RRIRKRPPRLPRPRPRPSIRPRP | -0.375
31 | RRIRSRPPRLPRPRPRPVERPRP | 0.187
32 | RRIRQRPPRLPRPRPRPFPKPRP | 0.0141
33 | RRIRDRPPRLPRPRPRPYVKPRP | -0.313
34 | RRIRTRPPRLPRPRPRPWQHPRP | -0.0511
35 | RRIRIRPPRLPRPRPRPKTSPRP | -0.465
36 | RRIRWRPPRLPRPRPRPCHQPRP | -0.0867
37 | RRIRQRPPRLPRPRPRPESEPRP | 0.219
38 | RRIRQRPPRLPRPRPRPRYPPRP | -0.0427
39 | RRIRPRPPRLPRPRPRPQACPRP | -0.0282
40 | RRIRLRPPRLPRPRPRPYRCPRP | -0.268
41 | RRIRGRPPRLPRPRPRPKRCPRP | 0.788
42 | RRIRGRPPRLPRPRPRPIECPRP | 0.146
43 | RRIRFRPPRLPRPRPRPRGEPRP | 0.125
44 | RRIRSRPPRLPRPRPRPMIHPRP | -0.0892

Row | Sequence | shrunken log2 fold change
45 | RRIRMRPPRLPRPRPRPWFEPRP | -0.13
46 | RRIRWRPPRLPRPRPRPFMCPRP | -0.245
47 | RRIRVRPPRLPRPRPRPWAEPRP | -0.0172
48 | RRIRRRPPRLPRPRPRPYVPPRP | -0.241
49 | RRIRIRPPRLPRPRPRPYQYPRP | -0.19
50 | RRIRKRPPRLPRPRPRPMQNPRP | 0.282
51 | RRIRARPPRLPRPRPRPSGNPRP | 0.0499
52 | RRIRHRPPRLPRPRPRPKYVPRP | -0.0624
53 | RRIRERPPRLPRPRPRPYHTPRP | 0.0711
54 | RRIRLRPPRLPRPRPRPHYGPRP | -0.232
55 | RRIRNRPPRLPRPRPRPYYLPRP | -0.673
56 | RRIRCRPPRLPRPRPRPAFLPRP | -0.214
57 | RRIRLRPPRLPRPRPRPQCEPRP | -0.153
58 | RRIRIRPPRLPRPRPRPITQPRP | -0.186
59 | RRIRLRPPRLPRPRPRPSEKPRP | -0.0219
60 | RRIRHRPPRLPRPRPRPSVIPRP | -0.369
61 | RRIRSRPPRLPRPRPRPDSVPRP | 0.107
62 | RRIRHRPPRLPRPRPRPSSYPRP | -0.649
63 | RRIRIRPPRLPRPRPRPYPDPRP | -0.039
64 | RRIRMRPPRLPRPRPRPMNGPRP | 0.0715
65 | RRIRVRPPRLPRPRPRPTHFPRP | -0.266
66 | RRIRCRPPRLPRPRPRPSDDPRP | 0.334

Row | Sequence | shrunken log2 fold change
67 | RRIRKRPPRLPRPRPRPYDLPRP | 0.115
68 | RRIRYRPPRLPRPRPRPKFHPRP | -1.15
69 | RRIRLRPPRLPRPRPRPGFCPRP | 0.272
70 | RRIRARPPRLPRPRPRPWDIPRP | 0.173
71 | RRIRPRPPRLPRPRPRPHKRPRP | 0.0853
72 | RRIRDRPPRLPRPRPRPQDIPRP | -0.00598
73 | RRIRYRPPRLPRPRPRPEIQPRP | 0.0356
74 | RRIRARPPRLPRPRPRPIWYPRP | -0.147
75 | RRIRYRPPRLPRPRPRPESGPRP | -0.0308
76 | RRIRYRPPRLPRPRPRPPDTPRP | -0.425
77 | RRIRSRPPRLPRPRPRPTNTPRP | 0.0794
78 | RRIRSRPPRLPRPRPRPPIIPRP | -0.135
79 | RRIRQRPPRLPRPRPRPKGAPRP | 0.0159
80 | RRIRERPPRLPRPRPRPYSKPRP | -0.464
81 | RRIRRRPPRLPRPRPRPYPHPRP | -0.181
82 | RRIRIRPPRLPRPRPRPAIGPRP | -0.207
83 | RRIRKRPPRLPRPRPRPLFRPRP | 0.696
84 | RRIRWRPPRLPRPRPRPTVSPRP | -0.156
85 | RRIRQRPPRLPRPRPRPPQGPRP | 0.434
86 | RRIRHRPPRLPRPRPRPQIYPRP | -0.137
87 | RRIRRRPPRLPRPRPRPMYSPRP | -0.0989
88 | RRIRSRPPRLPRPRPRPAFWPRP | 0.651

Row | Sequence | shrunken log2 fold change
89 | RRIRSRPPRLPRPRPRPHPLPRP | -0.00402
90 | RRIRARPPRLPRPRPRPMESPRP | 0.0501
91 | RRIRKRPPRLPRPRPRPWFCPRP | -0.0352
92 | RRIRHRPPRLPRPRPRPRAGPRP | 0.638
93 | RRIRERPPRLPRPRPRPSDWPRP | 0.0574
94 | RRIRMRPPRLPRPRPRPIAAPRP | 2.71
95 | RRIRNRPPRLPRPRPRPFNNPRP | -0.193
96 | RRIRTRPPRLPRPRPRPAHYPRP | -0.227
97 | RRIRMRPPRLPRPRPRPNVGPRP | -0.0241
98 | RRIRQRPPRLPRPRPRPFVCPRP | -0.0472
99 | RRIRKRPPRLPRPRPRPQILPRP | -0.144
100 | RRIRWRPPRLPRPRPRPYNLPRP | -0.991
101 | RRIRMRPPRLPRPRPRPQQSPRP | 0.0524
102 | RRIRPRPPRLPRPRPRPEMIPRP | -0.0258
103 | RRIRCRPPRLPRPRPRPEIFPRP | -0.422
104 | RRIRQRPPRLPRPRPRPQDVPRP | -0.0199
105 | RRIRFRPPRLPRPRPRPMLFPRP | -0.0947
106 | RRIRCRPPRLPRPRPRPPEEPRP | 0.301
107 | RRIRIRPPRLPRPRPRPVVQPRP | -1.04
108 | RRIRHRPPRLPRPRPRPQIKPRP | -0.889
109 | RRIRLRPPRLPRPRPRPHIIPRP | 0.0077

From the supplement of paper PMC9112550, “Optimization of the antimicrobial peptide Bac7 by deep mutational scanning” (BMC Biology, 2022)
